Data from the DeepSol protein solubility set.

Experiment: soluble on expression in E. coli; label from the status in PepcDB or PDB records

Sequence	soluble on expression in E. coli
MGFDLFGKIEDILKELPQDKEASVEDFEEERIKNCVPRIHKELREGFSPLEAGVLPYAISLNKGCYVGQEAIARVYFRGRTPRVLTKFEVIEQVKEEEKILEGNKAIGLITSVSPSGKMALGYILRAKFEKGKEYQTESGKVKAKGVCEDGSTLEHHHHHH	not soluble
MSTLKIAPSILAADYANFASELARIEETDAEYVHIDIMDGQFVPNISFGADVVASMRKHSKLVFDCHLMVVDPERYVEAFAQAGADIMTIHTESTRHIHGALQKIKAAGMKAGVVINPGTPATALEPLLDLVDQVLIMTVNPGFGGQAFIPECLEKVATVAKWRDEKGLSFDIEVDGGVDNKTIRACYEAGANVFVAGSYLFKASDLVSQVQTLRTALNV	soluble
MSSASAHHKKDLLDQVNNPVFLQDLRQQMIKFAVLQLASLPHAEDVVQDALASAFQHLDSFTGRAAFKTWVFAILKNKIIDLIRQKSRLVSMSELFKDEESELSIDALFDASGHWHKYEAPQAWLSPEEMMEQQDFWIIFDACLNHLPAKYAQVFMLREVIELNSSEICEKLELTVSHFNVLMYRSRTRLRECLENKWLLQEDCSC	not soluble
MRVATFSLVAQDPKTGDLGVAVASKFLAVGAVVPFAEAGVGAIATQSYANPRYGPQGLALLRQGASPEGVLEAFRRTDPGLEKRQFGLVAATGESLTFTGAECHPWAGGVAGKGFAAQGNLLSGSEVVEAMVETFLTAQAPFPERLLLALKAGEEAGGDRRGKQSAALLVVGEGKGYGGLWDRYVDLRVDDHPEPIDELFRLLSLHRLLFERPKGRRPLTEEEVRFFQGVLGRLGLYAGEAHGVFDEATERAFLALIGMENLEERYRGGPEVDEATLSYLKGRYGWS	soluble
MLGPPSREKWSSDFPRWFDWVIETAEVYDYGRYPVKGMGVWMPYGFQIRRRVLEVVRGLLDSTGHEEVLFPLLIPEHLLRRESEHIRGFEGEVYWVTHGGREELDVKLALRPTSETSITYMETFWIKSYRQLPKKYYQVVSIFRYETKATRPMIRLREVTTFKEAHTVHESFEDAERQVLEAIEVYKAIFDRLLIPYVISKRPEWDKFAGALYTIAFDTIMPDGRALQIGTVHHLGQSFTRAFDFRIQMRDERLDHPWQTSYGVSDRVVASLIAVHGDDRGLVIPPSVAPIQVVVIPITPGDEEKRGKVLTYTAKAAEALEKAGLRVHVDDREWERPGAKFYYWEAKGVPIRVEIGLREAEQDTLTIARRDTLEKTEVPLGEAGNRIRELMAQIESSMRERAKSFFGERLLRTESLEEARDWVEGRRGIAEIPWCGRESCGLEMEERVNGKVLGTPWPEEPVEEGKRCPLCGRPAVAWIRLAKTY	soluble
MGSDKIHHHHHHMAIDLLNIARTGVLASQSQLGVTSNNIANANTVGYHRQVATQTTLDSQRLGSSFYGTGTYVSDVKRIYNDYAARELRIGQTTLSAAEASYGKLSELDQIFSQIGKVVPQSLTDLFAGLNSLADLPADLGIRSSTLNDAKQLANSLNQMQSTLNGQLNQTNDQITGMTKRINEISTELANLNLELMKSPNQDPILLDKQDALVQELSQYAQVNVIPLENGAKSIMLGGSIMLVSGEVAMSMSTATGDPFPNELQLMSSIGSQSVKADPSKLGGQLGALFEYRDQTLVPASLELDQLALGVADSFNKLQAQGFDLNGQVGANMFKDINDPLMSLGRVGGFTDNTGNATLGVNIDDTSALTGGSYELSFTAPSTYELRDTQRARLLRLP	not soluble
MGSDKIHHHHHHMKKRFIYHDEKSNKFWWIDYEGDSLAVNYGKVGSIGKFQTKEFDNEEQCLKEASKLIAAKMKKGYQEDPKFNFMDRYYFDDEEIGLHVKTSHPNFQCHFTDPLYMCCWDEESPFGSDEGADALNVLENSLRKEPDLDCADFPQMLIETMWGMKYIAMDSILEEDVRAQLLVDEMSTIQSNMITYATAFGQIKVMGKISHKLKKMGLNALARHQLTAKILQWGDGQDSPILQKMIDDLTAFPHEN	not soluble
MSLRVLVMVNDFPNKDNSYTANIFVKEQVKALSEFVEEINVIVPIPRGIELYRKTSYRDYAIGENVHVHFVKYINPLFPIAYSKLRREWIWLEHRALTNFIKKKDIKFDIIHAHYTWPSGAVGVKLKEEYKVPLVITEHTSQTFNRYITTRDPLAREIWQKADIIVRVRKGDIDLFSRVGITPSKIRYIPNGFDGNKFYPIPQEIARRKLNLVEYEKIIINVANMYSRVKGHEYLLRAFSKVAENTSDAFLILVGSGKLLSHLKKLADNLYLGHRVLFAGSKPHDEIPLWMNAADLFVLPSLRESFGVVQIEAMACGVPVVATRNGGSEEIIISEDYGLLCEPANPKELAEKILIALEKEWDREKIRKYAEQFTWENIAKKTLEVYRGVLKEGHHHHHH	soluble
MAMVSGRRSTLNPDAPLFIPAAVRQVEDFSPEWWQLVTTSTWYPDYWISQQQQGADGFYDNGENENGGGHIDVADLLPESFDFDDMEDFFDTDAAEFDQGFDGRMYYQAPSEFGFGKNGEMVKKSSGNRSPRSIVEPAKYAEKPAKWGNQRVAAAPRNIHQPR	soluble
MGLCVSKPSVAGSPEHYAAHVAEQATPSEEGSGTPAQATSSYSATDPALQGLARRGKKVDLSRSGLPERVALKTKLLANSLSDAKDAGVRSSIVKYGERTLKMLAANKQPDEALLKLDIKNLPALASVYNRRYPGLNIQHFDSPIDFLQSLSEQTTSVVSQRAVLRLERDGEHHVAADVRRRPNGEASVIVLEPARLLTFVTGHTQLRRQALSQLGENAKFAFIQVGAQKSAADCLMFDLHFALHAHQHSSLFDQWHDNMVNHGTIDPYGQGAASPDALLEDAGVELMLGEQMLPAIFYKHTHSSGVVEEVDRSQPGSAYTDVSTSGRQQQHESLEQRVQAFRVDRGYSASIETSRATKIRSALETAISDRQS	not soluble
MTSRVDPANPGSELDSAIRDTLTYSNSPVPNALLTASESGFLDAAGIELDVLSGQQGTVHFTYDQPAYTRFGGEIPPLLSEGLRAPGRTRLLGITPLLGRQGFFVRDDSPITAAADLAGRRIGVSASAIRILRGQLGDYLELDPWRQTLVALGSWEARALLHTLEHGELGVDDVELVPISSPGVDVPAEQLEESATVKGADLFPDVARGQAAVLASGDVDALYSWLPWAGELQATGARPVVDLGLDERNAYASVWTVSSGLVRQRPGLVQRLVDAAVDAGLWARDHSDAVTSLHAANLGVSTGAVGQGFGADFQQRLVPRLDHDALALLERTQQFLLTNNLLQEPVALDQWAAPEFLNNSLNRHR	soluble
KAVIDIDAATKIMCSNAKAISLNEVEKNEIISKYREITAKKSERAELKEVEPIPLDWPSDLTLPPLPESTNDYVWAGKRKELDDYPRKQLIIDGLSIVIPTYNRAKILAITLACLCNQKTIYDYEVIVADDGSKENIEEIVREFESLLNIKYVRQKDYGYQLCAVRNLGLRAAKYNYVAILDCDMAPNPLWVQSYMELLAVDDNVALIGPRKYIDTSKHTYLDFLSQKSLINEIPEIITNNQVAGKVEQNKSVDWRIEHFKNTDNLRLCNTPFRFFSGGNVAFAKKWLFRAGWFDEEFTHWGGEDNEFGYRLYREGCYFRSVEGAMAYHQEPPGKENETDRAAGKNITVQLLQQKVPYFYRKKEKIESATLKRVPLVSIYIPAYNCSKYIVRCVESALNQTITDLEVCICDDGSTDDTLRILQEHYANHPRVRFISQKNKGIGSASNTAVRLCRGFYIGQLDSDDFLEPDAVELCLDEFRKDLSLACVYTTNRNIDREGNLISNGYNWPIYSREKLTSAMICHHFRMFTARAWNLTEGFNESISNAVDYDMYLKLSEVGPFKHINKICYNRVLHGENTSIKKLDIQKENHFKVVNESLSRLGIKKYKYSPLTNLNECRKYTWEKI	soluble
MDYSKIIKEVGRGKNHARDLDQPTAYALYKAMLAGQVPALELGGILIAFRIKGESEQEILGFYQAMQEQVMSLRAPVDRPLPVVIPSYNGARKQANLTPLLALLLSRLGLPVVVHGVTEDSSRVTSAEIFQQLNIPWSLSVQEAQQRLDNGLPVFIPVSALSMQLDQQLQQRWRMGVRNSSHTLAKLATPFTHDKALRVASVSHPEYMQKVGGFFQAISAPGLLLQGTEGEVYANPLRCPPIHYINDGEQTILLDRSSESVVPELPLSKDAVITARWIEGCLAGEQPIPDSILKQLACCLVAAGQADSVELALQQIKIV	not soluble
MAHHHHHHMEASAPGKVLILGSYLIVESCTPANVGISIGVNARFTTRIVKAEPTTTGASGKTTIHMRSPQFRQSFCFVANTSAPGTVAVKQTEGPGSPFIFNAVLYSVAAAQSLGSSTDGEIWVELLADNDFYSQRNYLESQGKDVNVANLRSLPPHLPLVGAISKTGLGSSAAMTTSIVACLCHHFNADGCSHEYVHRIAQIAHSVTQGKIGSGFDVYTAVYGTCAYRRFPVSRVSMMMMASAQPPSSVEVETLRRCVDMNEVWVPPESFRLPPGVKLVLGDVHQGGSCTPGMVAKIMAWRKSVADTPDNLWEQLRRNNEAYIAALRRMIDEAAAKPDVYAASMAALQQVPSLPLFRADGESMQCIVEASRFAARSRALLRDMGVAAEVKVEPVELTDLLDDTATLPGVFAVGCPGAGGYDAVFALVLGDECAAAVEAFWEHYTKMNVCPLLVREDPSGLLIQPPP	soluble
MRMTLAVHTRQYSIHSFNPSAPIPSKVFAEEVYFICKTEEGLTLVVSSELALDSLEQETNWSCLEVLGPLGFSLTGILSKIASTLADVQISIFALSSFDTDYILVKKDCLQNAMTALKKAGYKIIESKLEHHHHHH	not soluble
MGSDKIHHHHHHALGVVDEVHAGKEIGLQIYSLSQELYKGDVAANLRKVKDMGYSKLELAGYGKGAIGGVPMMDFKKMAEDAGLKIISSHVNPVDTSISDPFKAMIFKYSKEVTPKIMEYWKATAADHAKLGCKYLIQPMMPTITTHDEAKLVCDIFNQASDVIKAEGIATGFGYHNHNMEFNRVATKEQQEKVKGNPFAAFMKVGDQIYDLMLKDTDPSKVYFEMDVYWTVMGQNDPVEYMQKHPDRIKVLHIKDRAVFGQSGMMNFEMIFKQMYANGIKDYFVELEQMPDGRTQFAGVKDCADYLIKAPFVK	not soluble
FLDGIDKAQEEHEKYHSNWRAMASDFNLPPVVAKEIVASCDKCQLKGEAMHGQVDCSPGIWQLDCTHLEGKVILVAVHVASGYIEAEVIPAETGQETAYFLLKLAGRWPVKTVHTDNGSNFTSTTVKAACDWAGIKQEDGIPYNPQSQGVIESMNKELKKIIGQVRDQAEHLKTAVQMAVFIHNKKRKGGIGGYSAGERIVDIIATDIQTKELQKQITKIQNFRVYYRDSRDPVWKGPAKLLWKGEGAVVIQDNSDIKVVPRRKAKIIRDYGKQMAGDDCVASRQDED	soluble
MATAAASVVSSETGDLRAYMAANPAAVIEEVAKQWNVSPHAVIAALPDGMARLGPGDGFVAAMNDIATWGEVTLIVHTEDAIFEFTGEVPRGEISRGYFNLMQPKGLHGHLRHDRCGALAFVERPFMGKASAFVAFLNRDGGIMFKVFVGRDANRELRADQLARFHALAKQFSEEHSALEHHHHHH	not soluble
IKNDGLKLDAYYLPAGKATNKTVIIIHGFRRNKTGMKAYTDMFANLGYNTLTVDNRGHGKSQGHYVGFGWLDKGDVEAWIRYLISKNKNVEIVPFGISMGGATVAMMSGDSLPSNVKALIEDSGYTSVEAEITYEAKAMYNLPQKPFVSTVSLISKLFAGYSYTEASSIKQVEKNTRPMLFMHGGADSYVPTKMVYQLYNADKDPEKQLWIAPNSGHVQGFGDHPSAYTAQIKKFLNLYFK	not soluble
MLTQEQIMNALKHVEDPELHKSVVELNMVRNIQMNGTEVKLEVVLTIQGCPLKAKIQQDIEESLHAIGASKVEVTFGSMTQEERAALTEKLKRNTRTETGMPSMLRPDSGVRFITVTSGKGGVGKSTVTINLATALARMGKKVGILDADIYGFSIPAMMETNKKPTMIDQTAIPVISHGVKIMSMGFFTEGNNPVMWRGPMLNKWIQNFLANTHWGELDYLLLDLPPGTGDVAIDVAAMIPQAKEIIVTTPHNIASFVASRVGVMAKHTKHEILGIVENMAYYEEQDGSKNYLFGKGGGEMLAEQLQTEVIAKIPFAKREENNGSSVYDEDSLVGEVFTSLAEDIIYRGLEHHHHHH	soluble
